Article PMC5696371, “The HSF1–PARP13–PARP1 complex facilitates DNA repair and promotes mammary tumorigenesis” (Nature Communications, 2017)

Target: T1, hPARP13-His (human, UniProt Q7Z2W4 1-902)
T1 construct: human PARP13 cDNA in pET21a, His tag at the C terminus; also called His-tagged hPARP13; source: E. coli, purified (Ni Sepharose 6 Fast Flow); not shown: His, C-terminal, kept
Experiment: pull-down; purified GST fusion proteins and purified hPARP13-His mixed in NT buffer (50 mM Tris-HCl pH 7.5, 150 mM NaCl, 1 mM EDTA, 0.5% NP40) for 1 h at 4 °C, then glutathione-sepharose beads 2 h at 4 °C; immunoblotting
Conditions: both partners purified

T1 sequence (Q7Z2W4 whole entry): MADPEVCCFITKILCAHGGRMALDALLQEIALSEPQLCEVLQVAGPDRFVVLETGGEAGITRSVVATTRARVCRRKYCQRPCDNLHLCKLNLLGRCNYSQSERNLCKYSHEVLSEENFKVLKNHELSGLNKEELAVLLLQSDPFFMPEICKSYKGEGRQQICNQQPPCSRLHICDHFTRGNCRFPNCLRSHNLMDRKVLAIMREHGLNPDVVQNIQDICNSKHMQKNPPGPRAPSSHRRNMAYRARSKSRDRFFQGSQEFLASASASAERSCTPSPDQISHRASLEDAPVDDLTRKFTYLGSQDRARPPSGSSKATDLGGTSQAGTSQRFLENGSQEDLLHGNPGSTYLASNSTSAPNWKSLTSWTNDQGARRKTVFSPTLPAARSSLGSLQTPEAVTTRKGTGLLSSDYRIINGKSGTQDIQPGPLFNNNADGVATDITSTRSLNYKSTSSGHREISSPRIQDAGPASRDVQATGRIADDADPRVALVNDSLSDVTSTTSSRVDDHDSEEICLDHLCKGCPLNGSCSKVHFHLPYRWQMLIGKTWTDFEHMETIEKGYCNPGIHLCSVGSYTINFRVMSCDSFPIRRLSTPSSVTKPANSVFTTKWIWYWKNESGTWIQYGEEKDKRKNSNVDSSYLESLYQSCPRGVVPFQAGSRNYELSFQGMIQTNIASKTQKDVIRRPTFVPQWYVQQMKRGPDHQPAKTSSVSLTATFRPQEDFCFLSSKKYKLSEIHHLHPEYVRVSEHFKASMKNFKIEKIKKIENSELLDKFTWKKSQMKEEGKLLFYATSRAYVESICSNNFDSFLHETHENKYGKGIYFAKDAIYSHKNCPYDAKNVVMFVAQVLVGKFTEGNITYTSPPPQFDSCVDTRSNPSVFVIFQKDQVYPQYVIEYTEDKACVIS

B1: GST-hHSF1 (natural protein, human, UniProt Q00613 1-529, looked up)
chain: MDLPVGPGAAGPSNVPAFLTKLWTLVSDPDTDALICWSPSGNSFHVFDQGQFAKEVLPKYFKHNNMASFVRQLNMYGFRKVVHIEQGGLVKPERDDTEFQHPCFLRGQEQLLENIKRKVTSVSTLKSEDIKIRQDSVTKLLTDVQLMKGKQECMDSKLLAMKHENEALWREVASLRQKHAQQQKVVNKLIQFLISLVQSNRILGVKRKIPLMLNDSGSAHSMPKYSRQFSLEHVHGSGPYSAPSPAYSSSSLYAPDAVASSGPIISDITELAPASPMASPGGSIDERPLSSSPLVRVKEEPPSPPQSPRVEEASPGRPSSVDTLLSPTALIDSILRESEPAPASVTALTDARGHTDTEGRPPSPPPTSTPEKCLSVACLDKNELSDHLDAMDSNLDNLQTMLSSHGFSVDTSALLDLFSPSVTVPDMSLPDLDSSLASIQELLSPQEPPRPPEAENSSPDSGKQLVHYTAQPLFLLDPGSVDTGSNDLPVLFELGEGSYFSEGDGFAEDPTISLLTGSEPPKAKDPTVS
notes: human HSF1 fused to GST; the legend marks 'full-length GST-fusion proteins'; source: E. coli, purified (Glutathione Sepharose 4B)
  binding result: binds
